The assay addresses T1, recombinant soluble CD22 ectodomain (human, UniProt P20273 20-687).
T1 construct: extracellular domain; Staining reagent used to detect the 9A8 CAR on T cells; also called soluble recombinant CD22 ectodomain
T1 sequence (looked up): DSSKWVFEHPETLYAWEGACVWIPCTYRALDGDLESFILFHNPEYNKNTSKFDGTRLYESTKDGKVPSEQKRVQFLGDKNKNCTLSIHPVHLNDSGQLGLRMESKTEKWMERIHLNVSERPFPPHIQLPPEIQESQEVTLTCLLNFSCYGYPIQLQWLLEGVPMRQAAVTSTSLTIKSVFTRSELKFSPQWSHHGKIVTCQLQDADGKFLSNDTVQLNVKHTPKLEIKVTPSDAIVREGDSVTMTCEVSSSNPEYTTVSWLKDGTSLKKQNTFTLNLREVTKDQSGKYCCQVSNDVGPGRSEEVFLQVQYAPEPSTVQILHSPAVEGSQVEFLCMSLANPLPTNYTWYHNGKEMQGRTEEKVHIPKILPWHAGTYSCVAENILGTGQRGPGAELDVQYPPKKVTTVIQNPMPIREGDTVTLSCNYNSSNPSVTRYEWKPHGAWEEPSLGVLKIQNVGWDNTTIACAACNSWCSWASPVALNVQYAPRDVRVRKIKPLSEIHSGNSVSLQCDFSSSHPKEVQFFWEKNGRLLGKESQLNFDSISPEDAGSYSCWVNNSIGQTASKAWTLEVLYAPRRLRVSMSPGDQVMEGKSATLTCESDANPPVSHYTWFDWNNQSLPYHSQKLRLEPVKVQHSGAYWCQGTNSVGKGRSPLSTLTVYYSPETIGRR
The assay can be described thus: flow cytometry of CD19 CATCAR T cells stained with anti-idiotype and soluble recombinant CD22 ectodomain [cont.) F]. The text has this: FIG. 4. AUTO1/22 CAR T cells enhanced activity in vivo. A) Schedule of the in vivo model. B) and C) NSG mice were intravenously injected with 1×10⁶ Nalm-6 WT (B) or Nalm-6 CD19KO (neg) cells (C), and treated with non-transduced (NT), AUTO1 or AUTO1/22 normal donor T cells. Serial bioluminescence imaging was taken. All cells expressed HA-tagged firefly Luciferase. D) and E) Spider plot showing bioluminescence flux for each mouse over time; Nalm-6 WT (D) or Nalm-6 CD19KO (neg) cells (E). F) In vivo expansion of the different CAR T cell populations. Differential engraftment of different CAR T cell populations. The proportion of the different subpopulation of CAR T cells was determined by staining for AUTO1 with anti-idiotype and 9A8CAR with soluble recombinant CD22 ectodomain. […]
Next, the function of CD19 CAR T cells (AUTO1) and CD19/22 co-transduced CAR T cells (AUTO1/22) in vivo was determined. […] NALM6 cells were first engrafted in NSG mice by tail-vein injection, and their engraftment determined by bioluminescence imaging (BLI). […] NALM6 burden was measured sequentially using BLI. […] NALM6 burden and CAR T-cell engraftment was determined by flow cytometry.
Finally, the proportion of AUTO1, CD22CAR and AUTO1/22 CAR T cells engrafted in mice at sacrifice was determined by flow-cytometry of marrow aspirate.

B1: CD19 CATCAR (second-generation CD19 CAR, aCD19cat-CD8STK-41BBZ) (other)
chain: QVQLQQSGPELVKPGASVKISCKASGYAFSSSWMNWVKQRPGKGLEWIGRIYPGDEDTNYSGKFKDKATLTADKSSTTAYMQLSSLTSEDSAVYFCARSLLYGDYLDYWGQGTTLTVSSGGGGSGGGGSGGGGSQIVLTQSPAIMSASPGEKVTMTCSASSSVSYMHWYQQKSGTSPKRWIYDTSKLASGVPDRFSGSGSGTSYFLTINNMEAEDAATYYCQQWNINPLTFGAGTKLELKRSDPTTTPAPRPPTPAPTIASQPLSLRPEACRPAAGGAVHTRGLDFACDIYIWAPLAGTCGVLLLSLVITLYCKRGRKKLLYIFKQPFMRPVQTTQEEDGCSCRFPEEEEGGCELRVKFSRSADAPAYQQGQNQLYNELNLGRREEYDVLDKRRGRDPEMGGKPRRKNPQEGLYNELQKDKMAEAYSEIGMKGERRRGKGHDGLYQGLSTATKDTYDALHMQALPPR
notes: Chimeric antigen receptor expressed on the surface of transduced T cells: CAT19 scFv, CD8 stalk spacer and transmembrane domain, 4-1BB-CD3 zeta endodomain; also called CAT19CAR; CATi9CAR
B1: the binding result is “no binding”.

The values are drawn from patent US20260097122A1 (AUTOLUS, published 2026).
